Test results taken from US20150376265A1 (Genentech, published 2015).

Biological target: T1, Complex I with gH D446N, on virions of HB1 - mutant virus 4 (HCMV, UniProt P12824 24-743; P16832 31-278; P16837 28-171; F5HCP3 26-214; F5HET4 19-129)
T1 chain 1: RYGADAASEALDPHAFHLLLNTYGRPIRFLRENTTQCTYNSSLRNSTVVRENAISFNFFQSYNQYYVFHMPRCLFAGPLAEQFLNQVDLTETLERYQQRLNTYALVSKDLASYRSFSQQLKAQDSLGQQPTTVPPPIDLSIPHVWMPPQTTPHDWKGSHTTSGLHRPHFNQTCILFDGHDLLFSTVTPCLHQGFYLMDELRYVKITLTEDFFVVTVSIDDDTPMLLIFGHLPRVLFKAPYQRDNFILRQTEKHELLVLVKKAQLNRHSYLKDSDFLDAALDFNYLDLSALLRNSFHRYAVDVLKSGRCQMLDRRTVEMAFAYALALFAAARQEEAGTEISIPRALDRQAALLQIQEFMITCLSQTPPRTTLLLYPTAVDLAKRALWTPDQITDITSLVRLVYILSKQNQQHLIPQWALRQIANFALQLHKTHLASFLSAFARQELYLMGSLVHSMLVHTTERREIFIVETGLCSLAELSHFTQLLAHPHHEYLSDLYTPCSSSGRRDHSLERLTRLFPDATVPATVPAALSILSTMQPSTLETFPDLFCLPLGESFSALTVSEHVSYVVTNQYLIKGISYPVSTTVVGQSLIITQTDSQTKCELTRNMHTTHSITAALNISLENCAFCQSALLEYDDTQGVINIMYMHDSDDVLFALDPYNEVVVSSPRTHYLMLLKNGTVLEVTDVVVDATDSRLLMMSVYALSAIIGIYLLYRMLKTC
T1 chain 2: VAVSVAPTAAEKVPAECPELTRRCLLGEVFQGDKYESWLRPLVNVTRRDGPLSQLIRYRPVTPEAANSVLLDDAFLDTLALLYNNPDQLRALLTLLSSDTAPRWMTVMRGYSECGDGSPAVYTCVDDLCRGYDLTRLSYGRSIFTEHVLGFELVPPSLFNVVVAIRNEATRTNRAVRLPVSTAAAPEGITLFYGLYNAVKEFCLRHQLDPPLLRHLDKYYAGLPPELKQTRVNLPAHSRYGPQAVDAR
T1 chain 3: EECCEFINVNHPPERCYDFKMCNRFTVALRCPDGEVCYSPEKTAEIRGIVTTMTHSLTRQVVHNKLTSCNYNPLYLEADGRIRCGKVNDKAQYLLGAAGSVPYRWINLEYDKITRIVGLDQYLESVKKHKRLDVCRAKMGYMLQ
T1 chain 4: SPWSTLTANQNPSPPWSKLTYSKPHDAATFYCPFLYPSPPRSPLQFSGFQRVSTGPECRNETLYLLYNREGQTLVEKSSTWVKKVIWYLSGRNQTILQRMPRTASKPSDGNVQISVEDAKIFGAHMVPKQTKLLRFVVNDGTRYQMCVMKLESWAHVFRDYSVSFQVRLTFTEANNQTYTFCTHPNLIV
T1 chain 5: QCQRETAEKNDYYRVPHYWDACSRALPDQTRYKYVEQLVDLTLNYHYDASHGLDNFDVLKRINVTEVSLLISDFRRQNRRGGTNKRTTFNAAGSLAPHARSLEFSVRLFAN
Test: cell-based or functional assay

B1: hu8G8 (lambda4 8G8 graft and hu8G8.VH1) (antibody, V domains shown)
VH: EVQLVQSGAEVKKPGASVKVSCKASGYTFTNYGMNWVRQAPGQGLEWIGWINTYTGEPTYADDFKGRVTITRDTSTSTAYLELSSLRSEDTAVYYCARSWYYVSNYWYFDVWGQGTLVTVSS
VL: SVLTQSPSASASLGASVKLTCTLSSQHSTYTIEWYQQQPGKGPRYLMKLKKDGSHSTGDGIPDRFSGSSSGADRYLTISNLQSEDEADYYCGVGDTIKEQFVYVFGGGTKLTVLG
notes: also called hu8G8 with VH1; Humanized 8G8 with VH1
For B1, the “hu8G8 EC50, neutralisation of HB1 - mutant virus 4, Data Set 2” value was 0.1 ng/mL.
